According to patent publication US20040086528A1 (PROGENICS PHARMACEUTICALS, published 2004):

T1: CCR5 K191A/N192A, HA-tagged (human, UniProt P51681 1-352)
T1 sequence: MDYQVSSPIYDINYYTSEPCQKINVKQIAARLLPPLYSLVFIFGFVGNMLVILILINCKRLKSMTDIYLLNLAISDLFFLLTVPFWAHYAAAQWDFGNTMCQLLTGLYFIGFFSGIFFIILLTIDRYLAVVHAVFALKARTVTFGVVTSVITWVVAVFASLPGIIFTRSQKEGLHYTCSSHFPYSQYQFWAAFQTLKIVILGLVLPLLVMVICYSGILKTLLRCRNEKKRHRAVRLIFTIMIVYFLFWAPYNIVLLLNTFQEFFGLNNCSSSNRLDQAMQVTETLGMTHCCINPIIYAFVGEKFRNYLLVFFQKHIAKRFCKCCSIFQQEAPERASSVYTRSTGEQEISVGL

T2: CCR5 D11A, HA-tagged (human, UniProt P51681 1-352)
T2 sequence (looked up): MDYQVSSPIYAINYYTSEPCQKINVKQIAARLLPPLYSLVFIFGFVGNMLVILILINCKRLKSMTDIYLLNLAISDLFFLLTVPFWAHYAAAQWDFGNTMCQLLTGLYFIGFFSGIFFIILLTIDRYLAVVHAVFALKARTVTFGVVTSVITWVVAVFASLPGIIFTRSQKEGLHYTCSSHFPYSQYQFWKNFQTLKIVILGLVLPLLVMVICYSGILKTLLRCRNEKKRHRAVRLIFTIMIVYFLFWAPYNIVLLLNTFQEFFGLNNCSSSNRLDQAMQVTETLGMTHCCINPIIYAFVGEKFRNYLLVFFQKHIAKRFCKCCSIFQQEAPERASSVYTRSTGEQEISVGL

T3: CCR5 E262A, HA-tagged (human, UniProt P51681 1-352)
T3 sequence: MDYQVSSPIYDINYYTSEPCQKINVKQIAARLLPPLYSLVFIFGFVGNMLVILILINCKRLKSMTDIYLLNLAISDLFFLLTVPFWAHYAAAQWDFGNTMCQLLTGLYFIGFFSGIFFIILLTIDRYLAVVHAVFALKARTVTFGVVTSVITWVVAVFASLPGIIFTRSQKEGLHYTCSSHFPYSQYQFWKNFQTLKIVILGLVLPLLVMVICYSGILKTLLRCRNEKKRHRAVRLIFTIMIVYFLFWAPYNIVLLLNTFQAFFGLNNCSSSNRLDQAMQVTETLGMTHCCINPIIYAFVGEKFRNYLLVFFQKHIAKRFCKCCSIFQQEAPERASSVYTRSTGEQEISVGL

T4: CCR5 E18A, HA-tagged (human, UniProt P51681 1-352)
T4 sequence (looked up): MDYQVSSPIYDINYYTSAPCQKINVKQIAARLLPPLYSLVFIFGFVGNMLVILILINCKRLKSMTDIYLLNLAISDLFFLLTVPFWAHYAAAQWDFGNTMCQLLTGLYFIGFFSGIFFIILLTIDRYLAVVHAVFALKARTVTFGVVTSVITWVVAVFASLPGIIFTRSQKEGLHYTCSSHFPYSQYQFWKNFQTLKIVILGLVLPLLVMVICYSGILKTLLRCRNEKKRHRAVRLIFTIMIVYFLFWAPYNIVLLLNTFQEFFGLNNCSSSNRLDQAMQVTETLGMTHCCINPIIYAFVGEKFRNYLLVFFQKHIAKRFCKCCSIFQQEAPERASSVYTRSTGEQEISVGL

T5: CCR5 K26A, HA-tagged (human, UniProt P51681 1-352)
T5 sequence: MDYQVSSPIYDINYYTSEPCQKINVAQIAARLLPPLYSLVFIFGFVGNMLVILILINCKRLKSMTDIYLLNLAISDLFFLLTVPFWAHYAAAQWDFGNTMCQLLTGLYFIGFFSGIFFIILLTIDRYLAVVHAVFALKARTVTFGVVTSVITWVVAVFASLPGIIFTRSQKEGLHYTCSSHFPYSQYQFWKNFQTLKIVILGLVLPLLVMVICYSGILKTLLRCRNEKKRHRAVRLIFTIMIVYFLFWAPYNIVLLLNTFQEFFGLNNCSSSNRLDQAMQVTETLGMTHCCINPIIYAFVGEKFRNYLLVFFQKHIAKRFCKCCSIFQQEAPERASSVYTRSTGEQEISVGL

T6: CCR5 R274A/D276A, HA-tagged (human, UniProt P51681 1-352)
T6 sequence: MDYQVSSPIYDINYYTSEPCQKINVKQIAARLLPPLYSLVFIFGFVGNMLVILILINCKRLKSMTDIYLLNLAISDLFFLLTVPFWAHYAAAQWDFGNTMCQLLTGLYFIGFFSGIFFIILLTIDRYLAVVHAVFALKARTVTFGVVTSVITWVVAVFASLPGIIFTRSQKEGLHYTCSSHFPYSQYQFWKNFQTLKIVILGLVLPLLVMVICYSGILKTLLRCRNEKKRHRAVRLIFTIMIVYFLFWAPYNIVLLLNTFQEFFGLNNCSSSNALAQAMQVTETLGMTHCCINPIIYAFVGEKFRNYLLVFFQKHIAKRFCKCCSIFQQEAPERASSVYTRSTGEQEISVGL

T7: CCR5 Q93A, HA-tagged (human, UniProt P51681 1-352)
T7 sequence: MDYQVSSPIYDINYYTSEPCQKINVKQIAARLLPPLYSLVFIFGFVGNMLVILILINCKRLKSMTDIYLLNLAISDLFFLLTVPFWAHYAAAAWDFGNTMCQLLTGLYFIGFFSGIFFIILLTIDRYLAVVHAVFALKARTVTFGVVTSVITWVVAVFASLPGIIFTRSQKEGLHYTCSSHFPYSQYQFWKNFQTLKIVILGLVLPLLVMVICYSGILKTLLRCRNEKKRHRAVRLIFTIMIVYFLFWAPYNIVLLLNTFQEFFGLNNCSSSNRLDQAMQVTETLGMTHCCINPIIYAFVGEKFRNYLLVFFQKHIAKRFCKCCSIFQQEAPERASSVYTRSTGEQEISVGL

B1: macrophage inflammatory protein (MIP)-1β, recombinant human (ligand, UniProt P13236 24-92, looked up)
chain: APMGSDPPTACCFSYTARKLPRNFVVDYYETSSLCSQPAVVFQTKRSKQVCADPSESWVQEYVYDLELN
B2: RANTES, recombinant human (ligand)
chain: SPYSSDTTPCCFAYIARPLPRAHIKEYFYTSGKCSNPAVVFVTRKNRQVCANPEKKWVREYINSLEMS

Tests used:
Experiment in all cases: cell-based or functional assay
[1] = biological target: T1, CCR5 K191A/N192A, HA-tagged
CCR5 D11A, HA-tagged = biological target: T2, CCR5 D11A, HA-tagged
CCR5 E262A, HA-tagged = biological target: T3, CCR5 E262A, HA-tagged
CCR5 E18A, HA-tagged = biological target: T4, CCR5 E18A, HA-tagged
[2] = biological target: wild-type CCR5, HA-tagged at the C-terminus (human, UniProt P51681 1-352)
CCR5 K26A, HA-tagged = biological target: T5, CCR5 K26A, HA-tagged
[3] = biological target: T6, CCR5 R274A/D276A, HA-tagged
CCR5 Q93A, HA-tagged = biological target: T7, CCR5 Q93A, HA-tagged

| Binder | relative % inhibition of NLluc/JR-FL entry into U87MG-CD4 cells by 2 µg/ml chemokine (wild-type = 100) [1] | relative % inhibition of NLluc/JR-FL entry into U87MG-CD4 cells by 2 µg/ml chemokine (wild-type = 100) (CCR5 D11A, HA-tagged) | relative % inhibition of NLluc/JR-FL entry into U87MG-CD4 cells by 2 µg/ml chemokine (wild-type = 100) (CCR5 E262A, HA-tagged) | relative % inhibition of NLluc/JR-FL entry into U87MG-CD4 cells by 2 µg/ml chemokine (wild-type = 100) (CCR5 E18A, HA-tagged) | relative % inhibition of NLluc/JR-FL entry into U87MG-CD4 cells by 2 µg/ml chemokine (wild-type = 100) [2] | relative % inhibition of NLluc/JR-FL entry into U87MG-CD4 cells by 2 µg/ml chemokine (wild-type = 100) (CCR5 K26A, HA-tagged) | relative % inhibition of NLluc/JR-FL entry into U87MG-CD4 cells by 2 µg/ml chemokine (wild-type = 100) [3] | relative % inhibition of NLluc/JR-FL entry into U87MG-CD4 cells by 2 µg/ml chemokine (wild-type = 100) (CCR5 Q93A, HA-tagged) |
| --- | --- | --- | --- | --- | --- | --- | --- | --- |
| B1 | 15% | 41% | 102% | 100% | 100% | 97% | 36% | 97% |
| B2 | 18% | 7% | 100% | 62% | 100% | 100% | 33% | 114% |
